# Where two headings read alike, the source gives them in different places.
# How the values were obtained:
# [1] = Thermostability: mid-point thermal denaturation temperature (Tm) from temperature-dependent fluorescence (Roche LightCycler); type: physicochemical; conditions: apo-protein
# In short: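 Unfolding tracked by SYPRO binding to denatured protein, fluorescence at 488 nm/510 nm recorded on a LightCycler as temperature rose in 1 K steps. Tm taken as denaturation mid-point, for protein in solution or immobilized on Ni-NTA or NHS-agarose beads.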
# [2] = Glucose-dependent fluorescence emission intensity spectra of conjugates (Nanodrop3300); type: biochemical; conditions: Nanodrop3300
# Text: Semi-synthetic FRSs were engineered by site-specifically attaching thiol-reactive, environmentally sensitive fluorophores that respond to ligand-mediated conformational changes. Identification of FRS candidates that are useful for sensing applications comprises three steps: • 1. Cysteine scan. Mutant glucose-binding proteins containing single cysteines are constructed for site-specific attachment of thiol-reactive fluorophores. […] Candidate positions fall into three classes: endosteric, replacing a residue that contacts the ligand directly; peristeric, located at the rim of the binding site; allosteric (Marvin et al. 1997 Proc Natl Acad Sci USA, 94, 4366-71; Marvin 1998 J Am Chem Soc, 120, 7-11), located outside the binding site at sites that undergo local structural changes in concert with the hinge-bending motion. • 2. Fluorophore screening. Thiol-reactive, environmentally sensitive fluorophores are attached to each cysteine mutant prepared in step 1. • 3. Evaluation of the glucose-mediated change of all the fluorescent conjugates prepared in step 2. Responses to ligand binding in which there is both a change in fluorescence emission intensity and spectral shape was essential for chemometric applications, because such changes enable ratiometric measurements. Changes in spectral shape typically are accompanied by a shift in the wavelength of the emission intensity maxima. Three classes of fluorescent responses are possible: • i. No response. • ii. Monochromatic response (emission intensity increases or decreases without a change in spectral shape) • iii.
# [3] = Glucose binding: isothermal fluorescence titrations, ratiometric (appKd) and monochromatic (trueKd) fits; conditions: room temperature
# Text: 2 For a single glucose-binding site, the fractional saturation is given by
# [formula] where ^apoIλ2 and ^satIλ2 are the emission intensities of the monochromatic signal at wavelength λ2 of the ligand-free and ligand-bound protein, respectively.
# [4] = Galactose binding: isothermal fluorescence titrations of conjugates; set-up: key to Galactose trueKd: nb, no bonding; conditions: Badan conjugate; monochromatic titration curves; room temperature
# [5] = Acrylodan conjugate of ttGGBP.17C mutant
# [6] = Badan conjugate of ttGGBP.17C mutant
# [7] = read-out: Glucose appKd, Acrylodan conjugate, dichromatic ratiometry
# [8] = read-out: Glucose appKd, Badan conjugate, dichromatic ratiometry
# [9] = read-out: Glucose trueKd, Acrylodan conjugate, monochromatic titration curves
# [10] = read-out: Glucose trueKd, Badan conjugate, monochromatic titration curves
Molecule,apoTm ([1]; Acrylodan conjugate),apoTm ([1]; Badan conjugate),"Type of fluorescence response to glucose [2, 5]","Type of fluorescence response to glucose [2, 6]","Kd [3, 7]","Kd [3, 8]","Kd [3, 9]","Kd [3, 10]",Galactose trueKd [4]
"ttGGBP17C.5: affinity-tuning mutant, 17C background, SEQ ID NO: 70 (protein, ttGGBP17C.5 (affinity-tuning mutant, 17C background (Table 6) with signal peptide replaced with M and GGSHHHHHH at C-terminus)) MKQLNIGVAIYKFDATCMTGVRNAMTAEAQGKAKLNMVDSQNSQPTQNDQVDLFITKKMNALAINPVDRTAAGTIIDKAKQANIPVVFFNREPLPEDMKKWDKVYYVGAKAEQSGILQGQIMADYWKAHPEADKNHDGVMQYVMLMGQPGHQDAILRTQYSIQTVKDAGIKVQELAKDYANWDRVTAHDKMAAWLSSFGDKIEAVFANNDDMALGAIEALKSAGYFTGNKYIPVVGVDATAPGIQAIKDGTLLGTVLNDAKNQAKATFNIAYELAQGITPTKDNIGYDITDGKYVWIPYKKITKDNISDAEQGGSHHHHHH",348 K,345 K,"r(h) (r(h), ratiometric (hypsochromic shift))","r(h) (r(h), ratiometric (hypsochromic shift))",6000 µM,16000 µM,6000 µM,16000 µM,–
"ttGGBP17C.29: affinity-tuning mutant, 17C background, SEQ ID NO: 87 (protein, ttGGBP17C.29 (affinity-tuning mutant, 17C background (Table 6) with signal peptide replaced with M and GGSHHHHHH at C-terminus)) MKQLNIGVAIYKFDDTCMTGVRNAMTAEAQGKAKLNMVDSQNSQPTQNDQVDLFITKKMNALAINPVDRTAAGTIIDKAKQANIPVVFFNREPLPEDMKKWDKVYYVGAKAEQSGILQGQIMADYWKAHPEADKNHDGVMQYVMLMGQPGHQDAILRTQYSIQTVKDAGIKVQELAKDYANWDRVTAHDKMAAWLSSFGDKIEAVFANNDDMALGAIEALKSAGYFTGNKYIPVVGVDATAPGIQAIKDGTLLGTVLNDSKNQAKATFNIAYELAQGITPTKDNIGYDITDGKYVWIPYKKITKDNISDAEQGGSHHHHHH",–,343 K,–,"i (i, intensity increase only)",–,–,–,–,–
"ttGGBP17C.10: affinity-tuning mutant, 17C background, SEQ ID NO: 75 (protein, ttGGBP17C.10 (affinity-tuning mutant, 17C background (Table 6) with signal peptide replaced with M and GGSHHHHHH at C-terminus)) MKQLNIGVAIYKFDDTCMTAVRNAMTAEAQGKAKLNMVDSQNSQPTQNDQVDLFITKKMNALAINPVDRTAAGTIIDKAKQANIPVVFFNREPLPEDMKKWDKVYYVGAKAEQSGILQGQIMADYWKAHPEADKNHDGVMQYVMLMGQPGHQDAILRTQYSIQTVKDAGIKVQELAKDYANWDRVTAHDKMAAWLSSFGDKIEAVFANNDDMALGAIEALKSAGYFTGNKYIPVVGVDATAPGIQAIKDGTLLGTVLNDAKNQAKATFNIAYELAQGITPTKDNIGYDITDGKYVWIPYKKITKDNISDAEQGGSHHHHHH",351 K,–,"d (d, intensity decrease only)",–,–,–,–,–,–
"ttGGBP17C.25: affinity-tuning mutant, 17C background, SEQ ID NO: 83 (protein, ttGGBP17C.25 (affinity-tuning mutant, 17C background (Table 6) with signal peptide replaced with M and GGSHHHHHH at C-terminus)) MKQLNIGVAIYKFDDTCMTGVRNAMTAEAQGKAKLNMVDSQNSQPTQNDQVDLFITKKMNALAINPVDRTAAGTIIDKAKQANIPVVFFNREPLPEDMKKWDKVYYVGAKAEQSGILQGQIMADYWKAHPEADKNHDGVMQYVMLMGQPGHQDAILRTQYSIQTVKDAGIKVQELAKDYANWDRVTAHDKMAAWLSSFGDKIEAVFANNDDMALGAIEALKSAGYFTGNKYIPVVGVDATAPGIQAIKDGTLLGTVLNDKKNQAKATFNIAYELAQGITPTKDNIGYDITDGKYVWIPYKKITKDNISDAEQGGSHHHHHH",–,–,–,"i (i, intensity increase only)",–,3200 µM,–,3700 µM,nb^e
"ttGGBP17C.9: affinity-tuning mutant, 17C background, SEQ ID NO: 74 (protein, ttGGBP17C.9 (affinity-tuning mutant, 17C background (Table 6) with signal peptide replaced with M and GGSHHHHHH at C-terminus)) MKQLNIGVAIYKFDDSCMTGVRNAMTAEAQGKAKLNMVDSQNSQPTQNDQVDLFITKKMNALAINPVDRTAAGTIIDKAKQANIPVVFFNREPLPEDMKKWDKVYYVGAKAEQSGILQGQIMADYWKAHPEADKNHDGVMQYVMLMGQPGHQDAILRTQYSIQTVKDAGIKVQELAKDYANWDRVTAHDKMAAWLSSFGDKIEAVFANNDDMALGAIEALKSAGYFTGNKYIPVVGVDATAPGIQAIKDGTLLGTVLNDAKNQAKATFNIAYELAQGITPTKDNIGYDITDGKYVWIPYKKITKDNISDAEQGGSHHHHHH",–,–,"r(h) (r(h), ratiometric (hypsochromic shift))",–,200 µM,–,200 µM,–,–
"ttGGBP17C.1: affinity-tuning mutant, 17C background, SEQ ID NO: 66 (protein, ttGGBP17C.1 (affinity-tuning mutant, 17C background (Table 6) with signal peptide replaced with M and GGSHHHHHH at C-terminus)) MKQLNIGVAIYKFDDTCMTGVRNAMTAEAQGKAKLNMVDSQNSQPTQNDQVDLFITKKMNALAINPVDRTAAGTIIDKAKQANIPVVFFNKEPLPEDMKKWDKVYYVGAKAEQSGILQGQIMADYWKAHPEADKNHDGVMQYVMLMGEPGHQDAILRTQYSIQTVKDAGIKVQELAKDYANWDRVTAHDKMAAWLSSFGDKIEAVFANNDDMALGAIEALKSAGYFTGNKYIPVVGVDATAPGIQAIKDGTLLGTVLNDAKNQAKATFNIAYELAQGITPTKDNIGYDITDGKYVWIPYKKITKDNISDAEQGGSHHHHHH",–,–,"d (d, intensity decrease only)","r(h) (r(h), ratiometric (hypsochromic shift))",–,600 µM,–,800 µM,–
"ttGGBP17C.11: affinity-tuning mutant, 17C background, SEQ ID NO: 76 (protein, ttGGBP17C.11 (affinity-tuning mutant, 17C background (Table 6) with signal peptide replaced with M and GGSHHHHHH at C-terminus)) MKQLNIGVAIYKFDDTCMTGVRNAMTAEAQGKAKLNMVDSQNSQPTQNDQVDLFITKKMNALAINPVDRTAAGTIIDKAKQANIPVVFFNREPLPEDMKKWDKVYYVGAKAEQSGILQGQIMADYWKAHPEADKNHDGVMQYVMLMGQPGHQDAILRTQYSIQTVKDAGIKVQELAKDYANWDRVTAHDKMAAWLSSFGDKIEAVFANNDDMALGAIEALKSAGYFTGNKYIPVVGVDAAAPGIQAIKDGTLLGTVLNDAKNQAKATFNIAYELAQGITPTKDNIGYDITDGKYVWIPYKKITKDNISDAEQGGSHHHHHH",348 K,–,"d (d, intensity decrease only)",–,40 µM,–,40 µM,–,–

# Source: patent US11156615B2 (priority 2015, dated 2021)
